Experimental data reported in the supplement of paper PMC9112550, “Optimization of the antimicrobial peptide Bac7 by deep mutational scanning” (BMC Biology, 2022).

tested on: Escherichia coli TOP10; test: shrunken log2 fold change of peptide-encoding DNA abundance (4.5 h post-induction vs induction); higher = less antimicrobial activity (less host growth inhibition); details: time post-induction: 4.5 h; library: site-saturation at positions 5, 18, 19, 20
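Note: peptides expressed intracellularly from a pBAD plasmid library in pooled LB shake-flask culture, induced with 0.3% L-arabinose, DNA abundance read by NGS, three biological replicates, DESeq2 with apeglm shrinkage.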

Point of comparison: RRIRCRPPRLPRPRPRPISTPRP, “shrunken log2 fold change” value -0.245. Against it:
- RRIRERPPRLPRPRPRPKLIPRP — within 0.2 log units, -0.0786
- RRIRYRPPRLPRPRPRPGVRPRP — higher, 0.0103
- RRIRYRPPRLPRPRPRPRKPPRP — higher, 0.0457
- RRIRGRPPRLPRPRPRPCMFPRP — higher, 0.797
- RRIRARPPRLPRPRPRPQEFPRP — within 0.2 log units, -0.0568
- RRIRSRPPRLPRPRPRPFKPPRP — within 0.2 log units, -0.297
- RRIRCRPPRLPRPRPRPMRTPRP — higher, 0.962
- RRIRNRPPRLPRPRPRPAICPRP — higher, -0.0274
- RRIRWRPPRLPRPRPRPMKHPRP — higher, -0.0254
- RRIRHRPPRLPRPRPRPYLYPRP — lower, -0.482
- RRIRPRPPRLPRPRPRPLEPPRP — higher, 0.0434
- RRIRFRPPRLPRPRPRPMCNPRP — within 0.2 log units, -0.24
- RRIRERPPRLPRPRPRPCEIPRP — within 0.2 log units, -0.318
- RRIRYRPPRLPRPRPRPAVLPRP — higher, 0.0447
- RRIRFRPPRLPRPRPRPIMQPRP — lower, -0.497
- RRIRQRPPRLPRPRPRPNPQPRP — higher, 0.129
- RRIRKRPPRLPRPRPRPYQIPRP — higher, -0.000276
- RRIRTRPPRLPRPRPRPTLNPRP — higher, 0.569
- RRIRTRPPRLPRPRPRPDNCPRP — higher, 0.00765
- RRIRYRPPRLPRPRPRPVCQPRP — within 0.2 log units, -0.181
- RRIRLRPPRLPRPRPRPTESPRP — higher, 0.0515
- RRIRFRPPRLPRPRPRPLKKPRP — higher, 0.251
- RRIRNRPPRLPRPRPRPAKCPRP — within 0.2 log units, -0.384
- RRIRWRPPRLPRPRPRPAVYPRP — lower, -0.682
- RRIRKRPPRLPRPRPRPGSGPRP — higher, 0.708
- RRIRTRPPRLPRPRPRPKAIPRP — higher, 0.00211
- RRIRRRPPRLPRPRPRPEKWPRP — higher, -0.00174
- RRIRNRPPRLPRPRPRPMHGPRP — higher, -0.0225
- RRIRLRPPRLPRPRPRPFRFPRP — within 0.2 log units, -0.212
- RRIRNRPPRLPRPRPRPCVEPRP — within 0.2 log units, -0.209
- RRIRARPPRLPRPRPRPYNCPRP — higher, -0.0254
- RRIRNRPPRLPRPRPRPGDVPRP — within 0.2 log units, -0.0732
- RRIRWRPPRLPRPRPRPFFLPRP — higher, -0.0114
- RRIRFRPPRLPRPRPRPINCPRP — within 0.2 log units, -0.257
- RRIRRRPPRLPRPRPRPPNMPRP — higher, 0.402
- RRIRMRPPRLPRPRPRPGSGPRP — higher, 1.34
- RRIRWRPPRLPRPRPRPWTGPRP — within 0.2 log units, -0.0518
- RRIRNRPPRLPRPRPRPWLPPRP — within 0.2 log units, -0.0828
- RRIRPRPPRLPRPRPRPAYQPRP — higher, -0.0181
- RRIRERPPRLPRPRPRPYCDPRP — higher, -0.0156
- RRIRTRPPRLPRPRPRPYMLPRP — lower, -1.13
- RRIRMRPPRLPRPRPRPIVNPRP — higher, -0.0202
- RRIRKRPPRLPRPRPRPTKAPRP — higher, 0.647
- RRIRDRPPRLPRPRPRPCHPPRP — within 0.2 log units, -0.0697
- RRIRWRPPRLPRPRPRPHLNPRP — higher, 0.0153
- RRIRPRPPRLPRPRPRPANFPRP — within 0.2 log units, -0.0737
- RRIRSRPPRLPRPRPRPFCYPRP — lower, -0.528
- RRIRKRPPRLPRPRPRPILYPRP — lower, -0.505
- RRIRKRPPRLPRPRPRPAWLPRP — higher, 0.564
- RRIRGRPPRLPRPRPRPSSVPRP — higher, 0.282
- RRIRERPPRLPRPRPRPPIVPRP — within 0.2 log units, -0.302
- RRIRVRPPRLPRPRPRPFNMPRP — within 0.2 log units, -0.19
- RRIRDRPPRLPRPRPRPNYRPRP — within 0.2 log units, -0.152
- RRIRFRPPRLPRPRPRPQYAPRP — lower, -0.862
- RRIRYRPPRLPRPRPRPVNAPRP — within 0.2 log units, -0.361
- RRIRNRPPRLPRPRPRPYEYPRP — lower, -0.675
- RRIRDRPPRLPRPRPRPKTPPRP — higher, -0.00153
- RRIRSRPPRLPRPRPRPEGRPRP — within 0.2 log units, -0.0898
- RRIRQRPPRLPRPRPRPKMHPRP — higher, 0.127
- RRIRTRPPRLPRPRPRPDLVPRP — higher, -0.0188
- RRIRERPPRLPRPRPRPMPCPRP — higher, -0.0207
- RRIRSRPPRLPRPRPRPTCWPRP — higher, 1.09
- RRIRRRPPRLPRPRPRPGNYPRP — higher, -0.0441
- RRIRMRPPRLPRPRPRPNYMPRP — higher, 1.06
- RRIRDRPPRLPRPRPRPCNKPRP — lower, -0.764
- RRIRQRPPRLPRPRPRPPTHPRP — higher, 0.106
- RRIRIRPPRLPRPRPRPCFTPRP — lower, -0.519
- RRIRYRPPRLPRPRPRPAYDPRP — within 0.2 log units, -0.236
- RRIRCRPPRLPRPRPRPNIHPRP — lower, -0.607
- RRIRGRPPRLPRPRPRPWTLPRP — higher, 0.161
- RRIRARPPRLPRPRPRPKFPPRP — higher, 2.15
- RRIRRRPPRLPRPRPRPPVGPRP — higher, 0.366
- RRIRRRPPRLPRPRPRPDKNPRP — higher, 0.0344
- RRIRQRPPRLPRPRPRPAAIPRP — higher, 0.111
